According to patent publication US20210380647A1 (AFFILOGIC, published 2021):

Legend:
TNFa mutant S95C/G148C = target: T1, TNFa mutant S95C/G148C (UniProt P01375 77-233, S95C; G148C, disulfide bridges between subunits via C95 and C148); assay: ELISA of N11 on TNFa mutants (FIG. 12)
T1 construct: Positions probably count on the mature soluble chain; also called stabilized trimer of TNFa; stabilized TNFa trimer

TNFa mutant Y119A = target: T2, TNFa mutant Y119A (UniProt P01375 77-233, Y119A); assay: ELISA of N11 on Y119 mutants (FIG. 12A)
T2 construct: The text speaks of 'Y119 mutants'; also called Y119 mutants; Y119 TNFalpha variants
T2 sequence (P01375 77-233 Y195A): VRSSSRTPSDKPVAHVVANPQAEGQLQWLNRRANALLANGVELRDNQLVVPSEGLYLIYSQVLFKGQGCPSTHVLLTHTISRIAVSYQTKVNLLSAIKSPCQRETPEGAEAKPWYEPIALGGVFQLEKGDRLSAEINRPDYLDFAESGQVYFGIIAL

TNFa mutant Y119R = target: T3, TNFa mutant Y119R (UniProt P01375 77-233, Y119R); assay: ELISA of N11 on Y119 mutants (FIG. 12A)
T3 construct: The text speaks of 'Y119 mutants'; also called Y119 mutants; Y119 TNFalpha variants
T3 sequence (P01375 77-233 Y195R): as the sequence (P01375 77-233 Y195A) above, with A119R counted along it

murine TNFa = target: T4, murine TNFa (murine, UniProt P06804 80-235); assay: ELISA at a single concentration (EC100) on a plate functionalized with mTNFa (FIG. 3)
T4 construct: also called mTNFa; mouse TNF
T4 sequence (looked up): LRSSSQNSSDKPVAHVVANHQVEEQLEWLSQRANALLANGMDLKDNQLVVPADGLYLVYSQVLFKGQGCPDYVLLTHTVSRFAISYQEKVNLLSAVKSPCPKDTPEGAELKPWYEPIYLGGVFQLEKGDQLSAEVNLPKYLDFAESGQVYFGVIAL
Experimental: Biotinylated antigens are immobilized on streptavidin-coated plates as described above, except that the blocking step is performed for 1h at room temperature. For the identification of the positive clones, 100 μl of E. coli crude extracts are applied to wells with or without immobilized antigen for 1 h at RT. The binding is visualized using anti-RGSHis antibody HRP conjugate (Qiagen) which detects RGSHis6 tag from the variant and a solution at 1 mg/ml of o-phenylenediamine substrate (OPD) in revelation buffer (0.05 M citric acid, 0.05% hydrogen peroxide). Absorbance at 450 nm is measured using an ELISA plate reader. Quantitative ELISAs is done in the same manner, except purified protein is used.
A plate was functionalized with hTNFa and mTNFa.

T1 sequence (P01375 77-233 S171C/G224C): as the sequence (P01375 77-233 Y195A) above, with S95C, A119Y, G148C counted along it

B1: N11 (designed binder)
chain: MVKVKFVMFGKEKEVDTSKIVHVMRQGKLVHFWYEDNGKIDKGFVPEKDAPKELLDMLARAEREK
notes: Variant of Sac7d selected by ribosome display on biotinylated hTNFa; also called Sac7d variant N11; Nanofitin N11
binding result (TNFa mutant S95C/G148C): no binding | binding result (TNFa mutant Y119A): binds | binding result (TNFa mutant Y119R): binds | binding result (murine TNFa): binds
